Earlier results in paper PMC3265123.
Read-outs that look alike come from different tables or passages of the source.

Experiments:
gC1qR (Homo sapiens) [1] = biological target: gC1qR (Homo sapiens) (UniProt Q07021)
gC1qR (Homo sapiens) [2] = biological target: gC1qR (Homo sapiens) (UniProt Q07021); remark: listed apart in the source

UniProt Q07021, sequence (Q07021 74-282): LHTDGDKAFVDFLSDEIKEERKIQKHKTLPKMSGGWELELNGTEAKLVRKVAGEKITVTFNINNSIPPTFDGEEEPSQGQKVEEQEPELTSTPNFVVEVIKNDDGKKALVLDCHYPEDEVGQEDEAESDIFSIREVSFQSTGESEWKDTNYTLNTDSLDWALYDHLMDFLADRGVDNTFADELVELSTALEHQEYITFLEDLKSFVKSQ

- Kd (gC1qR (Homo sapiens) [1]): 0.8 nM
- Kd (gC1qR (Homo sapiens) [2]): 9 nM
Substance: high molecular weight kininogen (from UniProt P01042)
